# Data as given in patent US20070298997A1, “Compounds useful in treating diabetic microvascular complications and age-related macular degeneration” (priority 2003, published 2007).
# B1: kallistatin: Recombinant His-tagged rat kallistatin (serpin, SEQ ID NO:1) expressed in E. coli and affinity-purified (protein, listed as Homo sapiens)
# chain: DGILGRDTLPHEDQGKGRQLHSLTLASINTDFTLSLYKKLALRNPDKNVVFSPLSISAALAILSLGAKDSTMEEILEVLKFNLTEITEEEIHHQGFGHLLQRLSQPEDQAEINTGSALFIDKEQPILSEFQEKTRALYQAEAFVADFKQCNEAKKFINDYVSNQTQGKIAELFSELDERTSMVLVNYLLFKGKWKVPFNPNDTFESEFYLDEKRSVKVPMMKIKDLTTPYIRDEELSCSVLELKYTGNASALFILPDQGKMQQVESSLQPETLKKWKDSLRPRIISELRMPKFSISTDYNLEEVLPELGIRKIFSQQADLSRITGTKNLHVSQVVHKAVLDVDETGTEGAAATAVTAALKSLPQTIPPLNFNRPFMLVITDNNGQSVFFMGKVTNPM
# modifications: His tag
# What was measured:
# [1] = test system: RCEC; assay: Quantitative analysis of apoptosis by Annexin V/PI flow cytometry; type: cell-based, bovine; details: 24 h, 40-640 nM
# Protocol: To determine whether kallistatin might induce cell death, RCEC were incubated with different concentrations of kallistatin or 10 μM chochicine for 24 h, and the apoptotic cells were quantified using the Annexin V-flow cytometry method. Phosphatidylserine externalization is a characteristic of cells undergoing apoptosis. The Annexin V-FITC kit allows for fluorescent detection of Annexin V bound to apoptotic cells and quantitative determination by flow cytometry. The Annexin V-FITC kit uses Annexin V conjugated with fluorescein isothiocyante (FITC) to label phosphatidylserine sites on the membrane surface. The kit includes propidium iodide (PI) to label the cellular DNA in necrotic cells where the cell membrane has been totally compromised. This combination allows the differentiation among early apoptotic cells (Annexin V positive, PI negative), necrotic cells (Annexin V positive, PI positive), and viable cells (Annexin V negative, PI negative) which can be located in the lower right, upper right, and lower left quadrants of the cytograms, respectively (FIG. 4a). Because only cells that are Annexin V-positive and PI-negative are truly apoptotic cells, the percentage of this cell population was quantified.
# Quantitative analysis of apoptosis by flow cytometry: RCEC were plated at a density of 10^5 cells/well in 6-well plates. […] The cells were subsequently counted by flow cytometry.
# [2] = test system: Retinal capillary endothelial cells (RCEC); assay: Quantification of viable cells by MTT assay, RCEC; type: cell-based, bovine
# Protocol: FIG. 2 illustrates the specific inhibition of endothelial cell proliferation by recombinant kallistatin. RCEC were treated with recombinant kallistatin at concentrations of 5,10, 20, 40, 80 and 160 nM for 72 h. Viable cells were quantified by MTT assay. […] This effect appeared to be kallistatin concentration-dependent, with an apparent IC50 of 50 nM (FIG. 2) which is similar to that of K5, a known angiogenic inhibitor (Zhang et al., 2001).
# FIG. 7 illustrates the effects of B1 and B2 kinin receptor antagonists on RCEC. In order to test whether the anti-angiogenic activity of kallistatin is via reducing kinin production by inhibiting kallikrein activity, RCEC were treated with 5 μM des-Arg^9-[Leu^8]-bradykinin, a specific antagonist of the B1 kinin receptor or Hoe-140, a specific B2 kinin receptor antagonist, in the presence or absence of 40 nM kallistatin for 48 h, and viable cells were quantified by MTT assay.
# Quantification of viable cells: Cells were plated in 12-well plates in triplicate and cultured in the growth medium until they reached 60-70% of confluency. The culture medium was replaced with a medium containing 1% fetal bovine serum (FBS). Recombinant kallistatin was added to the cover medium to various concentrations and incubated with the cells for 72 h. The viable cells were quantified by the MTT (3-[4,5-dimethylthiazol-2-yl]-2,5-dephenyl tetrazolium bromid, Roche, Mannheim, Germany) assay following a protocol recommended by the manufacturer. The effect of kallistatin on viable cell number was analyzed using Student's t test.
# [3] = test system: TGF-β; assay: TGF-β-induced fibronectin secretion in HMC (ELISA); type: cell-based, human; details: 5 ng/ml TGF-β, 3 days
# Protocol: FIG. 12 illustrates that kallistatin blocks TGF-β-induced fibronectin over-production in HMC. HMC were treated with 5 ng/ml TGF-β without or with different concentrations of kallistatin for 3 days. Fibronectin secreted into the medium was measured by ELISA (mean±SD, n=3). TGF-β induced significant over-production of fibronectin.
# Kallistatin blocks the function of TGF-β, a major pathogenic factor in DN. TGF-β is a major inflammatory and fibrosis mediator. It plays a major role in the development of DN. To explore the role of kallistatin in DN, the effect of kallistatin in blocking TGF-β activity in kidney cells was determined. HMC were treated with 5 ng/ml TGF-β for 3 days without or with different concentrations of kallistatin.
# [4] = test system: VEGF; assay: VEGF in RCEC cell lysate by Western blot; type: cell-based, bovine; details: RCEC under hypoxia, 24 h, 40-640 nM
# Protocol: FIG. 9 illustrates down-regulation of VEGF expression by kallistatin. As increased VEGF levels in the retina and vitreous play a key role in the development of retinal neovascularization, the effect of kallistatin on the expression of VEGF in cultured RCEC was determined. VEGF secreted into the conditioned medium was measured by VEGF ELISA and normalized by total protein concentration in the medium.
# Measurement of VEGF in the conditioned medium of RCEC by ELISA: RCEC were seeded in T75 flasks in endothelial cell growth medium and cultured in a CO2 incubator to reach 60-70% confluency. The cells were washed 3 times with PBS and the growth medium replaced by a serum-free medium containing bFGF (GIBCO-BRL, Gaithersburg, Md.). Kallistatin was added to the medium to various concentrations and incubated with the cells for 24 h under normoxia or hypoxia (in a chamber that was perfused with a mixture of 95% N2+5% CO2). The conditioned medium was harvested for VEGF ELISA and the cells were used for Western blot analysis. The conditioned medium was centrifuged and the protein concentration in the supernatant was measured with BioRad protein assay. VEGF concentration was measured using a VEGF ELISA kit (R& D systems, Minneapolis, Minn.) and normalized by total protein concentration in the medium. […]
# [5] = test system: retina; assay: Retinal toxicity after intravitreal injection (histology of retinal sections); type: in vivo, Brown Norway rats
# Protocol: Induction of retinal neovascularization and intravitreal injection of kallistatin: Retinal neovascularization was induced as described by Smith et al. (Smith et al., 1994) with some modifications. Briefly, newborn pigmented Brown Norway rats at postnatal day 7 (P7) were exposed to hyperoxia (75% O2) for 5 days and then normoxia. Animals were anesthetized, and kallistatin was injected into the vitreous of the right eye through the pars plana using a glass capillary. The left eye received the same volume of PBS as the control. After injection, the animals were kept in normoxia for another 5 days for further analyses.
molecule,measurement,setting,value
B1,"apoptosis (Annexin V-positive, PI-negative cells)",[1],increases apoptosis in RCEC in a dose-dependent manner
same,viable cells vs control,"[2]; 5 nM, 72 h, P<0.05",significantly fewer viable cells than the control cells
same,"viable cell numbers, % of the control","[2]; 40 nM, 48 h, P<0.01",approximately 50 % of the control
same,IC50,"[2]; 72 h, read-out: apparent IC50, viable cells",50 nM
same,TGF-β-induced fibronectin secretion,[3],blocked the TGF-β-induced fibronectin secretion in a concentration-dependent manner
same,TGF-β-induced fibronectin secretion,[3]; listed as Kallistatin,blocked the TGF-β-induced fibronectin production in a concentration-dependent manner
same,VEGF levels in the cell lysate,[4],reduced VEGF levels in the cell lysate of RCEC in a concentration-dependent manner
same,inflammatory response or toxicity to retinal tissues and normal vasculature,[5]; intravitreal injection,does not cause any detectable inflammatory response or toxicity
same,histological evidence of retinal toxicity,[5]; retinal sections after intravitreal injection,No apparent histological evidence of retinal toxicity
